Data reported in US5677159A, “Genomic DNA of human cholesterol 7α-hydroxylase and methods for using it” (Northeastern Ohio University, priority 1995, dated 1997).

Test system: T1, CC(C)CCC[C@@H](C)[C@H]1CC[C@H]2[C@@H]3CC=C4C[C@@H](O)CC[C@]4(C)[C@H]3CC[C@]12C
T1 construct: Met-Ala (from the NcoI cloning site) in front of Arg25 (N); made in house; host or cells: E. coli TOPP3 carrying pJL/H7α1.5 (ATCC 69401)
Test: Reconstitution assay of cholesterol 7α-hydroxylase activity at different concentrations of cholesterol (Lineweaver-Burke plot)
Format: biochemical, human
Settings: other: purified truncated enzyme reconstituted with NADPH-cytochrome P450 reductase and phospholipid, 1 mM NADPH, 37° C., 20 minutes, pH 7.4
Method: FIG. 10 illustrates a Lineweaver-Burke plot of activities of truncated human and truncated rat cholesterol 7α-hydroxylase in E. coli. Truncated CYP7 activity was measured using a reconstitution assay, such as that described in Example 10, at different concentrations of cholesterol, as indicated. Linear regression was used to draw the line.
The truncated enzyme was purified from recombinant bacteria. Purification methodology is described by Li and Chiang, J. Biol. Chem. 266 (29): 19186 (1991), the contents of which are expressly incorporated by reference herein in its entirety. The activity of CYP7, in both the presence and absence of the compound, is measured as described by Chiang, Meth. Enzym. 206: 483 (1991), the contents of which is expressly incorporated by reference herein in its entirety. […]
The Km and Vmax for cholesterol have been determined in comparison with the truncated, bacterially expressed rat CYP7 enzyme (FIG. 10). […]

## truncated human cholesterol 7α-hydroxylase (CYP7), amino acids 1 to 24 of the membrane anchor region deleted, SEQ ID NO:5, expressed in E. coli TOPP3-pJL/H7α1.5 (Homo sapiens)
  Km: 5.85 µM
  Vmax: 0.13 nmol/min
